{"source": "paper doi:10.1101/2025.08.01.668158", "key": {"[1]": {"molecular_target": "T1, SpDis3L2(D461N)ΔN168 (Schizosaccharomyces pombe, UniProt O14040 168-927, D461N)", "T1 sequence": "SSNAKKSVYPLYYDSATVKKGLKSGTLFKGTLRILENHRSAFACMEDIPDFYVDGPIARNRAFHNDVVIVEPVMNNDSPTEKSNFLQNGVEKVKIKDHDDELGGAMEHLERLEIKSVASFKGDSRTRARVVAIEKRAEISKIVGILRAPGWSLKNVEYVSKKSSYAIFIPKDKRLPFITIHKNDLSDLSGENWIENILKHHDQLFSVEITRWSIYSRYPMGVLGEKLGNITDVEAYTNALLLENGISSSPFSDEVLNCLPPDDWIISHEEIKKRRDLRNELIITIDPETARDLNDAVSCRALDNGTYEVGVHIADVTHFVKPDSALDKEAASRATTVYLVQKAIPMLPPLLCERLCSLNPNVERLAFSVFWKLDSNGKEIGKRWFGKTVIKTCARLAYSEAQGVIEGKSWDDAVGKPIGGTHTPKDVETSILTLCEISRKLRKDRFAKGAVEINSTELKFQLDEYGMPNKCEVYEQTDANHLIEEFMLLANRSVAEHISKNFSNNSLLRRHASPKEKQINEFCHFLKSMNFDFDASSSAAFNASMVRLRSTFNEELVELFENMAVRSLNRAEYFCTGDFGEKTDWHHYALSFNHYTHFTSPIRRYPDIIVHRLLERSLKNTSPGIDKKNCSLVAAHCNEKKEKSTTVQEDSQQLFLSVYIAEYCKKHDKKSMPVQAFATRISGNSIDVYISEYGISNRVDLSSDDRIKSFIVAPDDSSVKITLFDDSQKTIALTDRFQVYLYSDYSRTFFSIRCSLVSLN", "assay": "X-ray crystallography"}, "[2]": {"molecular_target": "T2, SpDis3L2 A756R (Schizosaccharomyces pombe, UniProt O14040 1-927, A756R)", "T2 sequence": "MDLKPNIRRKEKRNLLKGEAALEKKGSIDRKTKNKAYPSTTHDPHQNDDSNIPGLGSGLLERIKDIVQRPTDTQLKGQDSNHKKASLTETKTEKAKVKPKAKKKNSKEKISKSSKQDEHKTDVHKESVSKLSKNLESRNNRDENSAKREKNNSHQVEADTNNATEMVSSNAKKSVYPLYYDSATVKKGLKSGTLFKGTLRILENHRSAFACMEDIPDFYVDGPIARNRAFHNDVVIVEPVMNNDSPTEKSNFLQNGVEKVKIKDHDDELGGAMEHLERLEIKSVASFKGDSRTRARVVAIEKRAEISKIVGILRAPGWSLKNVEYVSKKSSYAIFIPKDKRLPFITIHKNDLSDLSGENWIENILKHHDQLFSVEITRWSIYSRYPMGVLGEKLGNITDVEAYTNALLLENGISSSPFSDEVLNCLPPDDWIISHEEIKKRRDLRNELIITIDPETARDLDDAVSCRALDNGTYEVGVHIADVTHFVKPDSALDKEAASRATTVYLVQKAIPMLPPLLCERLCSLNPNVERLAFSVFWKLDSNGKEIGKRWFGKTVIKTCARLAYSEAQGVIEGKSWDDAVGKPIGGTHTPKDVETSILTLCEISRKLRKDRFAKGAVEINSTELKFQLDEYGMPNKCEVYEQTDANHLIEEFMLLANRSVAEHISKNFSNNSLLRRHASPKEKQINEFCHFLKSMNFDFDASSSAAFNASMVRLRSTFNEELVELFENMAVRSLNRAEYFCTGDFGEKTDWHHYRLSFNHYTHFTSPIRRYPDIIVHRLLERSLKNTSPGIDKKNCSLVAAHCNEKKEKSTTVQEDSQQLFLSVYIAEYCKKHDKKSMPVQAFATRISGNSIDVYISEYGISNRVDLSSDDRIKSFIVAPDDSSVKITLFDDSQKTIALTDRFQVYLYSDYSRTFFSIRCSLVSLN", "assay": "EMSA"}, "[3]": {"molecular_target": "T3, SpDis3L2 WT (Schizosaccharomyces pombe, UniProt O14040 1-927)", "T3 sequence": "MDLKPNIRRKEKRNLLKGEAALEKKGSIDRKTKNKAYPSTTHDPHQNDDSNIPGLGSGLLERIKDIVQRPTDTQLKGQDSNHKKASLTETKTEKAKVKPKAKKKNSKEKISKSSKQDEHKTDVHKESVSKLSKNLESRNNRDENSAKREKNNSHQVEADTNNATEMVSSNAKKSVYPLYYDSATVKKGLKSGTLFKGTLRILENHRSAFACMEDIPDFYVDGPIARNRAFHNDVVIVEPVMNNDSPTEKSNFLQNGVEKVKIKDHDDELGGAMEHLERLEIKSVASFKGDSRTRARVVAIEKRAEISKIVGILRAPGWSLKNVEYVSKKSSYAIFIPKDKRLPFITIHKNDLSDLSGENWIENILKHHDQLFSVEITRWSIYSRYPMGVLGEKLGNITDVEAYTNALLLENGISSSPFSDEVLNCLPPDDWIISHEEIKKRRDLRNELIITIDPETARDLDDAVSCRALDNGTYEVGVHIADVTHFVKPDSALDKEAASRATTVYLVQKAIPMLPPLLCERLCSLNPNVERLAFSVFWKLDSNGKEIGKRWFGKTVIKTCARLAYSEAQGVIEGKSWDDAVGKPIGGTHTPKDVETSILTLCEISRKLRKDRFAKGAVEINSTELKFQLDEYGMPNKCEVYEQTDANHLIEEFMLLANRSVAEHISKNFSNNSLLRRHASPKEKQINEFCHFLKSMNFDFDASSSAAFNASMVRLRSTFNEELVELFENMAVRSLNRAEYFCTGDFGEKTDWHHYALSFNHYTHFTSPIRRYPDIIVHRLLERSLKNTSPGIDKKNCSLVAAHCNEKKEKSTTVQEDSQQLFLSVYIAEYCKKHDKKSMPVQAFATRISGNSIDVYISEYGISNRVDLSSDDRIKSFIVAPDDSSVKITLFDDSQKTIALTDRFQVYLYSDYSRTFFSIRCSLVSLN", "assay": "EMSA"}}, "data": [{"binder": "UUUUUUUUUUUUU (ssRNA)", "note": "[U13]", "values": [{"measurement": "binding result", "setting": "[1]", "result": "binds"}]}, {"binder": "GUUUUGUAUAGAAAUCAAUGUUUUUUUUUUUUUUUU (ssRNA)", "note": "[Adh1-U16]", "values": [{"measurement": "binding result", "setting": "[2]", "result": "binds"}, {"measurement": "binding result", "setting": "[3]", "result": "binds"}]}]}
